From paper PMC7029000
“And” between values parts separate entries of the source, which are not always exact repeats. Equal entries are not always repeated.

Columns and labels:
[1] = target: PKM2 (mouse (endogenous in primary astrocytes and striatum)) (UniProt P52480); assay: native gel or EMSA; blue native PAGE of striatum of Drd2 flox/flox and Drd2 hGFAPcKO mice after 5 mg/kg quinpirole or pyridoxine for 7 days, immunoblot for PKM2; tetramer to dimers
[2] = target: PKM2 (mouse (endogenous in primary astrocytes and striatum)) (UniProt P52480); assay: native gel or EMSA; blue native PAGE (8%, 4 °C) of digitonin lysates of primary astrocytes, immunoblot for PKM2; tetramer to dimers; cells treated with quinpirole, DASA-58, PTX, β-arrestin siRNA, pyridoxine
[3] = target: Purified recombinant PKM2 (UniProt P52480); assay: native gel or EMSA; blue native PAGE of purified recombinant PKM2 mixed with natural products (vindoline, pyridoxine and others); tetramer to dimers

PKM2, P52480 1-531 (enzyme; other documents disagree on this pair), sequence (P52480 whole entry): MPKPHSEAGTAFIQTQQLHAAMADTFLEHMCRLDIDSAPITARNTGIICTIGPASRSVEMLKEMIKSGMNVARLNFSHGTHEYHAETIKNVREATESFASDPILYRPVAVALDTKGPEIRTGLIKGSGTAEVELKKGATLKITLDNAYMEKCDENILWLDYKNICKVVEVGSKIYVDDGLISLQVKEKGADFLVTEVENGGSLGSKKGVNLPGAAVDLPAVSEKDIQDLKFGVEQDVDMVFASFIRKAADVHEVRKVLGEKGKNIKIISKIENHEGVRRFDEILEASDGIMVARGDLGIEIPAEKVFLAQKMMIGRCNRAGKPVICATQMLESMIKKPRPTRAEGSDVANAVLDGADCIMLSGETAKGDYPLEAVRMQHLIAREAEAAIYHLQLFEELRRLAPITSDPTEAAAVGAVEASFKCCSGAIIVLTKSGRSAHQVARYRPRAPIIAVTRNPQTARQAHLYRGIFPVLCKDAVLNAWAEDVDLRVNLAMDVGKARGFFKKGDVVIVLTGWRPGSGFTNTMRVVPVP
Purified recombinant PKM2, P52480 1-531 (enzyme; other documents disagree on this pair), sequence (P52480 whole entry): as above

| stoichiometry N [1] | stoichiometry N [2] | stoichiometry N [3] | Substance |
| --- | --- | --- | --- |
| 2 and 4 | 4 and 2 |  | PKM2, P52480 1-531 (enzyme; other documents disagree on this pair) |
|  |  | 2 and 4 | Purified recombinant PKM2, P52480 1-531 (enzyme; other documents disagree on this pair) |
